Assay [1] has as its system diabetic model mouse C57BL/KsJ-db/db mice. In words: Oral glucose tolerance test. The format is in vivo. Particulars: for glucose tolerance ameliorating effect (blood glucose level after glucose loading): db/db mice fasted overnight, intravenous, mouse IP-10 6 μg/head, GLP-1 (7-36 Amide) 50 μg/head, 3 g/kg D-glucose orally, 0-135 minutes, FIGS. 2 and 3; for blood glucose levels at 90 minutes after glucose loading: db/db mice, intravenous mouse Mig or human I-TAC, versus solvent control group, FIG. 4. How it is done: In the test, diabetic model mouse C57BL/KsJ-db/db mice (male, SPF grade, 7-week old, Clea Japan) were fasted overnight from the day before testing, mouse IP-10 (PEPRO TECH) or GLP-1 (7-36 Amide) (Peptide Institute), previously dried, was dissolved in physiological saline (Otsuka Pharmaceutical), and intravenous administration was conducted (6 μg/head; n=4 for IP-10, 50 μg/head; n=4 for GLP-1). For a solvent control group, physiological saline (Otsuka Pharmaceutical) was used (n=4). After intravenous administration, 3 g/kg of D-glucose was orally administered. Before glucose loading (0 minute) and 15, 45, 90 and 135 minutes after glucose loading, blood was collected from the caudal vein, and blood glucose levels were measured in accordance with the method described below.
That is, 10 μl of blood was collected and mixed with 100 μL of 0.4 N perchloric acid, further 50 μL of 0.37 M potassium carbonate was added, and the supernatant after centrifugation was analyzed using the Glucose CII•Test Wako (glucose quantitation kit, mutarotase•GOD method, Wako Pure Chemicals) to determine the blood glucose level.
Also for Mig and I-TAC, which are CXCR3 ligands other than IP-10, mouse Mig or human I-TAC (both manufactured by BIOCARTA), previously dried, was dissolved in physiological saline (Otsuka Pharmaceutical), intravenous administration was conducted, and glucose tolerance ameliorating action was evaluated by the same technique.

The subject of assay [2] is CHO/Gqi5 cell line incorporating an empty vector (pcDNA3.1). In words: Calcium signaling using FLIPR, CHO/Gqi5 cells transfected with control pcDNA3.1 (empty vector). The format is cell-based. Particulars: control pcDNA3.1 transfected CHO/Gqi5 cells; human ligands, 300 ng/ml; FIG. 5. The procedure: (§1) CHO/Gqi5 cells, at 2×10^4 cells/well, were sown to a 96-well Black bottom clear plate (Corning), and cultured in the absence of antibiotics in a CO2 incubator for 24 hours. 50 ng of pcDNA3.1/Zeo-CXCR3 or pcDNA3.1 was diluted in 5 μl of OPTI-MEM, and 0.3 μl of LipofectAmine was diluted in 5 μl of OPTI-MEM. Both were mixed and allowed to stand at room temperature for 30 minutes, after which 40 μl of a serum-free F12 medium was added, and the mixture was added to wells once washed with a serum-free F12 medium. After cultivation in a CO2 incubator for 4 hours, the medium was replaced with a 10% FBS-supplemented F12 medium (once washed), and the cells were cultured in a CO2 incubator for 24 hours and subjected to a measurement using FLIPR®.
(§2) The cells recovered from each well were sown to a 96-well Black bottom clear plate (Corning). When cell counting was possible, the cells were sown at 2×10^4 cells/well. Next day, the medium was removed, 50 μl of an H/H/F/PB solution containing 2 μM Fluo-3-AM and 0.02% Pluronic acid was added, and cultivation was conducted in a CO2 incubator for 1 hour. […]

For assay [3], the target named is T1, CXCR3 (Homo sapiens, UniProt P49682).
T1 sequence (P49682 1-368): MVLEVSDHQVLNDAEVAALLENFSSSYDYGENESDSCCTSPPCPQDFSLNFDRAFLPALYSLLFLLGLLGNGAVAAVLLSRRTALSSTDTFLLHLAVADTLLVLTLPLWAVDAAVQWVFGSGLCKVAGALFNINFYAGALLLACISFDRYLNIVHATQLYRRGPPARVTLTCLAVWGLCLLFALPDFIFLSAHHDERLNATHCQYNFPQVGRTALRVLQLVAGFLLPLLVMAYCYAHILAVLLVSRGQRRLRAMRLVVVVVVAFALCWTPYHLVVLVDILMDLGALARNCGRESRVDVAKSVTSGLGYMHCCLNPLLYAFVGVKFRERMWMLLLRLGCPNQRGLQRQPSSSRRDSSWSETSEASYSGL
Kind of assay: Calcium signaling using FLIPR, CHO/Gqi5 line stably expressing CXCR3 (#122-17). The format is cell-based. The note with it: #122-17 line, FIG. 6; for concentration dependency of the response: human ligands at 100, 300, 1,000 ng/ml; for ligand concentration from which responsiveness could be confirmed: human ligands. Also noted: prepared by amplifying the coding region of human CXCR3 by the PCR technique; expressed in transfected cells; host or cells: CHO/Gqi5 cells. The procedure:
1×10^6 cells were sown to a T25 flask, and cultured in a CO2 incubator for 24 hours. pcDNA3.1/Zeo-CXCR3 was cleaved with the restriction endonuclease SspI, and linearized at the vector portion. 2.5 μg of this plasmid DNA was diluted in 250 μl of OPTI-MEM, and 15 μl of LipofectAmine was diluted in 250 μl of OPTI-MEM. Both were mixed and allowed to stand at room temperature for 30 minutes, after which 2 ml of a serum-free F12 medium was added, and the mixture was added to a flask once washed with a serum-free F12 medium. After cultivation in a CO2 incubator for 4 hours, the medium was replaced with a 10% FBS-supplemented F12 medium (once washed), and cultivation was conducted in a CO2 incubator for 48 hours. The cells were recovered and sown to a 96-well plate at 1, 5 or 25 cells/well. At this time, Zeocin was added at 250 μg/ml. Three 96-well plates for each cell concentration, i.e., a total of nine plates, were cultured. About 20 days later, cells were recovered from the wells with evidence of cell proliferation, and sown to a 96-well Black bottom clear plate (Corning). Next day the plate was subjected to a measurement using FLIPR®, and selection of lines showing good ligand responsiveness was performed. For the lines showing good ligand responsiveness, recloning was performed. Each was selected at 0.1 cells/well on the 96-well plate, cells were recovered from the wells showing evidence of cell proliferation after about 20 days, and line selection was performed in the same manner as above.
The cells recovered from each well were sown to a 96-well Black bottom clear plate (Corning). When cell counting was possible, the cells were sown at 2×10^4 cells/well. Next day, the medium was removed, 50 μl of an H/H/F/PB solution containing 2 μM Fluo-3-AM and 0.02% Pluronic acid was added, and cultivation was conducted in a CO2 incubator for 1 hour. The medium was replaced with 100 μl of H/H/F/PB solution and heating was conducted in a CO2 incubator for 10 minutes, after which the plate was set to FLIPR® and further heated at 37° C. for 10 minutes, after which 25 μl of the ligand similarly heated at 37° C. was added using an injector, and a measurement of calcium signaling was conducted.
By the aforementioned method of (2)-2., pcDNA3.1/Zeo-CXCR3 was cleaved with the restriction endonuclease SspI and linearized at the vector portion. This was transfected to CHO/Gqi5 cells, and drug-resistant lines were selected using 250 μg/ml zeocin to obtain 156 drug-resistant lines. Next, for these resistant lines, responsiveness to IP-10 was confirmed using FLIPR®, and lines showing high ligand responsiveness (6 clones) were isolated. […]

Assay [4] addresses T1, CXCR3. Kind of assay: Calcium signaling using FLIPR, CHO/Gqi5 cells transiently expressing CXCR3. It is filed as cell-based. Details: prepared by amplifying the coding region of human CXCR3 by the PCR technique; expressed in transfected cells; host or cells: CHO/Gqi5 cells. Particulars: pcDNA3.1/Zeo-CXCR3 transiently transfected CHO/Gqi5 cells; human ligands, 300 ng/ml; FIG. 5. How it is done: as §1, §2

The target in assay [5] is T1, CXCR3. The note with it: J. Biol. Chem., 273(29): 18288-18291 (1998); Eur. J. Immunol., 29 (1999); cited from earlier work.
The target of another assay is human CXCR3 (human) (UniProt P49682). Kind of assay: cell-based or functional assay.

Where no end group is shown, it is not given here.

Turning to “IP-10: CXC chemokine, physiological ligand for CXCR3; mouse IP-10 (PEPRO TECH) in Example 1, human IP-10 (Peprotech) in Example 4”, in assay [1], the “glucose tolerance ameliorating effect (blood glucose level after glucose loading)” value is “glucose tolerance ameliorating effect nearly equivalent, on a dose basis, to that of GLP-1”. Further, in assay [2], the “responsiveness to ligand (calcium signaling, fluorescence intensity)” value is “no response was detected”. In the assay with CXCR3 [3], the “concentration dependency of the response” value was “concentration dependency could be confirmed” and the “ligand concentration from which responsiveness could be confirmed” value is not below 300 ng/mL. The “responsiveness to ligand (calcium signaling, fluorescence intensity)” value in the assay with CXCR3 [4] was “a response was observed”. Consider “I-TAC: CXC chemokine, physiological ligand for CXCR3; human I-TAC”, for which the “blood glucose levels at 90 minutes after glucose loading” value in assay [1] is “decreased compared to the solvent control group”. In addition, the “responsiveness to ligand (calcium signaling, fluorescence intensity)” value in assay [2] is recorded as “no response was detected”. Moreover, in the assay with CXCR3 [3], the “concentration dependency of the response” value is recorded as “concentration dependency could be confirmed” and the “ligand concentration from which responsiveness could be confirmed” value was not below 100 ng/mL. Moreover, in the assay with CXCR3 [4], the “responsiveness to ligand (calcium signaling, fluorescence intensity)” value is given as “a response was observed”. For the molecule “MIP-3a: CC chemokine known to weakly bind to CXCR3”, the “binding to CXCR3” value with CXCR3 [5] is recorded as “weakly bind”.

For the molecule “GLP-1 (7-36 Amide) (HAEGTFTSDVSSYLEGQAAKEFIAWLVKGR-NH2; UniProt P01275 98-127, looked up) [a kind of incretin known to act on the pancreas to promote insulin secretion (Peptide Institute), reference compound]”, the “glucose tolerance ameliorating effect (blood glucose level after glucose loading)” value in assay [1] is reported as “glucose tolerance ameliorating effect”.

Take “MCP-3: CC chemokine known to weakly bind to CXCR3”: the “binding to CXCR3” value in the assay with CXCR3 [5] was “weakly bind”. Turning to “human I-TAC (G/T) (from UniProt O14625 22-94) (ligand)”, the lowest ligand concentration giving a calcium response (FLIPR) in the CXCR3 stably expressing CHO/Gqi5 line #122-17 in the assay with human CXCR3 (human) was 100 ng/mL. As for “RANTES: CC chemokine known to weakly bind to CXCR3”, the “binding to CXCR3” value in the assay with CXCR3 [5] was “weakly bind”. Consider “eotaxin: CC chemokine known to weakly bind to CXCR3”, for which the “binding to CXCR3” value in the assay with CXCR3 [5] was “weakly bind”. For “Human IP-10 (Peprotech) (from UniProt P02778 22-98) (ligand)”, the lowest ligand concentration giving a calcium response (FLIPR) in the CXCR3 stably expressing CHO/Gqi5 line #122-17 with human CXCR3 (human) stood at 300 ng/mL. “MCP-4: CC chemokine known to weakly bind to CXCR3”: in the assay with CXCR3 [5], the “binding to CXCR3” value is on record as “weakly bind”.

B1: 6Ckine: CC chemokine known to weakly bind to CXCR3 (protein, UniProt O00585 24-134, looked up)
C-C motif chemokine 21: SDGGAQDCCLKYSQRKIPAKVVRSYRKQEPSLGCSIPAILFLPRKRSQAELCADPKELWVQQLMQHLDKTPSPQKPAQGCRKDRGASKTGKKGKGSKGCKRTERSQTPKGP
Consider B1, for which the “binding to CXCR3” value with CXCR3 [5] is “weakly bind”.

B2: Mig: CXC chemokine, physiological ligand for CXCR3; mouse Mig (BIOCARTA) (protein, UniProt P18340 22-126, looked up)
C-X-C motif chemokine 9: TLVIRNARCSCISTSRGTIHYKSLKDLKQFAPSPNCNKTEIIATLKNGDQTCLDPDSANVKKLMKEWEKKISQKKKQKRGKKHQKNMKNRKPKTPQSRRRSRKTT
Take B2: the “blood glucose levels at 90 minutes after glucose loading” value in assay [1] is “decreased compared to the solvent control group”.
